Measurements reported in patent US20250163119A1, “COMPOUNDS FOR THE TREATMENT OF DIABETES OR OBESITY” (Eli Lilly and Company, priority 2023, published 2025).
*1 amine or outer side, *2 acyl side, *3 side chain or, on linkers, in order; H or OH if unused. Side-chain parts run from the residue outwards. [ ]: non-standard residue; d: D form. The star is where a group is joined. C20 diacid = O=C(O)CCCCCCCCCCCCCCCCCCC(=O)*; γGlu = O=C(O)[C@H](CCC(=O)[*:2])N[*:1]; αMeL = CC(C)C[C@](C)(N)C(=O)O; AEEA = NCCOCCOCC(=O)O; Aib = CC(C)(N)C(=O)O; Ahx = NCCCCCC(=O)O

T1: human corticotropin-releasing hormone receptor 1 (CRHR1) (human, UniProt P34998 24-415)
T1 sequence (looked up): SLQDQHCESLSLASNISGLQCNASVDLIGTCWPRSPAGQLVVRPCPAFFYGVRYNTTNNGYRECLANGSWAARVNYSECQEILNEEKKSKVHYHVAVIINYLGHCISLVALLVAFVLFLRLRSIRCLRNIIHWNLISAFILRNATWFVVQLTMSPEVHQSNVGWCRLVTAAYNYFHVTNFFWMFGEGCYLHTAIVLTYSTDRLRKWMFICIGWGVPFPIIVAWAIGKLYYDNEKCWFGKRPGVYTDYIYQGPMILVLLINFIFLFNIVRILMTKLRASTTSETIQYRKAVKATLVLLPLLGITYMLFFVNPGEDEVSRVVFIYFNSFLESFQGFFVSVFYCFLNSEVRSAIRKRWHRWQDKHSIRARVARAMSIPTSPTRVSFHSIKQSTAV

B1: polypeptide comprising SEQ ID NO:40 (peptide)
peptide: Ac-IVTS[αMeL]D[dV]PTG[αMeL]LQIKLEQERAEKARQQAKENTEILAQV-NH2
modifications: not fully specified (residue 29)
B2: polypeptide comprising SEQ ID NO:41 (peptide)
peptide: Ac-IVTS[αMeL]D[dV]PT[Aib][αMeL]LQIKLEQERAEKARQQAK([AEEA-AEEA-γGlu-C20 diacid])ENTEILAQV-NH2
SMILES: CC[C@H](C)[C@H](NC(C)=O)C(=O)N[C@H](C(=O)N[C@H](C(=O)N[C@@H](CO)C(=O)N[C@@](C)(CC(C)C)C(=O)N[C@@H](CC(=O)O)C(=O)N[C@@H](C(=O)N1CCC[C@H]1C(=O)N[C@H](C(=O)NC(C)(C)C(=O)N[C@@](C)(CC(C)C)C(=O)N[C@@H](CC(C)C)C(=O)N[C@@H](CCC(N)=O)C(=O)N[C@H](C(=O)N[C@@H](CCCCN)C(=O)N[C@@H](CC(C)C)C(=O)N[C@@H](CCC(=O)O)C(=O)N[C@@H](CCC(N)=O)C(=O)N[C@@H](CCC(=O)O)C(=O)N[C@@H](CCCNC(=N)N)C(=O)N[C@@H](C)C(=O)N[C@@H](CCC(=O)O)C(=O)N[C@@H](CCCCN)C(=O)N[C@@H](C)C(=O)N[C@@H](CCCNC(=N)N)C(=O)N[C@@H](CCC(N)=O)C(=O)N[C@@H](CCC(N)=O)C(=O)N[C@@H](C)C(=O)N[C@@H](CCCCNC(=O)COCCOCCNC(=O)COCCOCCNC(=O)CC[C@H](NC(=O)CCCCCCCCCCCCCCCCCCC(=O)O)C(=O)O)C(=O)N[C@@H](CCC(=O)O)C(=O)N[C@@H](CC(N)=O)C(=O)N[C@H](C(=O)N[C@@H](CCC(=O)O)C(=O)N[C@H](C(=O)N[C@@H](CC(C)C)C(=O)N[C@@H](C)C(=O)N[C@@H](CCC(N)=O)C(=O)N[C@H](C(N)=O)C(C)C)[C@@H](C)CC)[C@@H](C)O)[C@@H](C)CC)[C@@H](C)O)C(C)C)[C@@H](C)O)C(C)C
B3: polypeptide comprising SEQ ID NO:42 (peptide)
peptide: Ac-IVTS[αMeL]D[dV]PI[Aib][αMeL]LQIKLEQERAEKARQQAK([AEEA-AEEA-γGlu-C20 diacid])ENTEILAQV-NH2
SMILES: CC[C@H](C)[C@H](NC(C)=O)C(=O)N[C@H](C(=O)N[C@H](C(=O)N[C@@H](CO)C(=O)N[C@@](C)(CC(C)C)C(=O)N[C@@H](CC(=O)O)C(=O)N[C@@H](C(=O)N1CCC[C@H]1C(=O)N[C@H](C(=O)NC(C)(C)C(=O)N[C@@](C)(CC(C)C)C(=O)N[C@@H](CC(C)C)C(=O)N[C@@H](CCC(N)=O)C(=O)N[C@H](C(=O)N[C@@H](CCCCN)C(=O)N[C@@H](CC(C)C)C(=O)N[C@@H](CCC(=O)O)C(=O)N[C@@H](CCC(N)=O)C(=O)N[C@@H](CCC(=O)O)C(=O)N[C@@H](CCCNC(=N)N)C(=O)N[C@@H](C)C(=O)N[C@@H](CCC(=O)O)C(=O)N[C@@H](CCCCN)C(=O)N[C@@H](C)C(=O)N[C@@H](CCCNC(=N)N)C(=O)N[C@@H](CCC(N)=O)C(=O)N[C@@H](CCC(N)=O)C(=O)N[C@@H](C)C(=O)N[C@@H](CCCCNC(=O)COCCOCCNC(=O)COCCOCCNC(=O)CC[C@H](NC(=O)CCCCCCCCCCCCCCCCCCC(=O)O)C(=O)O)C(=O)N[C@@H](CCC(=O)O)C(=O)N[C@@H](CC(N)=O)C(=O)N[C@H](C(=O)N[C@@H](CCC(=O)O)C(=O)N[C@H](C(=O)N[C@@H](CC(C)C)C(=O)N[C@@H](C)C(=O)N[C@@H](CCC(N)=O)C(=O)N[C@H](C(N)=O)C(C)C)[C@@H](C)CC)[C@@H](C)O)[C@@H](C)CC)[C@@H](C)CC)C(C)C)[C@@H](C)O)C(C)C
B4: polypeptide comprising SEQ ID NO:39 (peptide)
peptide: Ac-IVTS[αMeL]D[dV]PTG[αMeL]LQIKLEQERAEKARQQAKENTEILAQV-NH2
modifications: not fully specified (residue 29)
B5: polypeptide comprising SEQ ID NO:4 (peptide)
peptide: Ac-GSPSIVTS[αMeL]DVPT[Aib][αMeL]LQKILEQERAEKARQQAK([Ahx-AEEA-γGlu-C20 diacid])EAAEILAQV-NH2

Target: T1, human corticotropin-releasing hormone …
Test: cell-based or functional assay

Binder | hCRHR1 cAMP EC50
B1 | > 10 µM
B2 | 3.7 µM
B3 | 2.3 µM
B4 | 3.7 µM
B5 | > 10 µM
